# B1: HDV Ribozyme (parent)
# chain: GGCCGGCAUGGUCCCAGCCUCCUCGCUGGCGCCGGCUGGGCAACAUUCCGAGGGGACCGUCCCCUCGGUAAUGGCGAAUGGGACCCA
# Variants of: B1
# Assay: self-cleavage, relative activity (ratio to wild type); higher = more cleavage; co-transcriptional
row,Variant,self-cleavage
1,C3U A71U,0.742
2,C26A G34C,0.111
3,G59A U69C,0.846
4,C57U A83G,0.808
5,G40C G59U,0.326
6,G55C U69G,0.984
7,U27G U46A,0.332
8,G40C A70U,0.191
9,C30U U72G,0.128
10,C41G C75A,0.353
11,C3A C86G,0.745
12,U46G U47C,0.623
13,G2C A51G,0.0831
14,G53U C64G,0.62
15,G74C G81C,0.196
16,G10A G17C,0.341
17,C44U G68U,0.607
18,C30A C36G,0.148
19,U60G C86A,1.01
20,A71U U72G,0.684
21,G54A C63U,1.04
22,G10A G80C,0.131
23,U20G C85U,0.0554
24,A16C G17U,0.332

row,Variant,self-cleavage
1,G31A C61U,0.442
2,C48A G73C,0.618
3,C19G C84G,0.0941
4,U47C A56U,0.942
5,C33U A51U,0.848
6,C15A A42G,0.104
7,C61A G67U,1.12
8,C18U C26G,0.869
9,G2U C61A,0.0913
10,G2A G31A,0.0729
11,C32U C63A,0.701
12,G5A U65A,0.259
13,G17C A78G,0.0536
14,C44G C62G,0.485
15,U9A C48A,1.01
16,C22U U46A,0.295
17,G31U G53U,0.322
18,C48G A77C,0.323
19,U27A A70U,0.985
20,G6A G68U,0.691
21,G10C U79G,0.346
22,G10C C22U,0.326
23,C33A U47G,0.378
24,C49U G68C,0.784

row,Variant,self-cleavage
1,C7G A77C,0.0692
2,A70G G81A,0.378
3,C3G U65A,0.648
4,U46G A70G,0.511
5,C18U C24A,0.123
6,G34U U72A,0.151
7,C49A U72C,0.32
8,U65C A77C,0.465
9,C44A C49G,0.511
10,C3U G68C,0.781
11,G1U G52A,0.356
12,G35U C85U,0.623
13,G34A A87U,0.196
14,C58U C62A,0.969
15,C61A G76A,1.02
16,C22G G25U,0.102
17,A42C G80A,0.234
18,G39A U79C,0.0723
19,C21A A71G,0.0573
20,G1U G2A,0.262
21,C26G U79C,0.458
22,C4U C63U,0.682
23,A56U C85G,0.982
24,C15G U79A,0.312

row,Variant,self-cleavage
1,C61A C63A,0.689
2,C21A A43G,0.132
3,C7U A45C,0.119
4,U60C U72A,0.755
5,A56C G68A,1.11
6,G40A G59C,0.831
7,C64A G73C,0.256
8,G17A U79C,0.514
9,C44A C84G,0.0519
10,G39C C75U,0.0583
11,C13G C15U,0
12,G10C G80A,0.166
13,G55C C64G,0.953
14,G31U C63G,0.483
15,G80C G82U,0.0782
16,C32G C61G,0.0604
17,A8U G68U,0.858
18,C13G C57A,0.0554
19,G2U G80C,0.0455
20,C49G G76C,0.982
21,G35C C58A,0.175
22,A45C G54U,0.95
23,A43G C86U,0.739
24,G6U G38A,0.0396

row,Variant,self-cleavage
1,C26G G38U,0.435
2,G5U C63A,0.332
3,C15U G82C,0.166
4,G40C C62A,0.237
5,C41G C66A,0.96
6,G35A G39A,0.219
7,G25A,0.24
8,C15U U65G,0.914
9,U72A A83G,0.318
10,C41A G52A,0.901
11,G38A G76A,0.112
12,U9C C15U,0.776
13,C19G U47A,0.106
14,U23C U65A,1.09
15,C13A G73U,0.0615
16,C7U A71C,0.322
17,G2U C7U,0.0264
18,C36U A87U,0.769
19,U20C C44G,0.0692
20,G11C G54C,0.291
21,G52C A83G,0.683
22,A43U G74U,0.684
23,G29U U46C,0
24,C44G C85G,0.831

row,Variant,self-cleavage
1,C21U C84G,0.122
2,C58G G74C,0.101
3,U12G G82C,0.633
4,G50U C64U,0.901
5,C26A G55A,0.888
6,C41G A45U,0.594
7,G31U A83G,0.16
8,G29C A77C,0.0639
9,G73A G81A,0.176
10,G59A C62A,0.678
11,C32U C62U,1.13
12,U20A C57U,0.0707
13,U46G C61G,0.649
14,C18A A71C,0.0504
15,G54U G81C,0.299
16,G6C U23A,0.0615
17,C3G G5A,0.18
18,A16U U60C,0.831
19,G39C G54U,0.222
20,C75U A77G,0.0415
21,G1C G59U,0.0437
22,U23C G38A,0.17
23,G1C A45G,0.192
24,A16G C85G,0.965

row,Variant,self-cleavage
1,A70U A77G,0.665
2,G34A G80C,0.0819
3,C13A G73A,0.0863
4,A71C C84A,0.511
5,A42U G59A,0.845
6,G2U C19A,0.0165
7,U47C A87G,0.876
8,C33A A56G,0.324
9,C36A A71G,0.0405
10,C3A C15A,0.306
11,C33A U60A,0.193
12,G6A C18A,0
13,U60A C84U,0.793
14,U12A G76U,0.906
15,G10U U47C,0.499
16,C7A U69C,0.617
17,A42U A51G,0.508
18,A16C C44U,0.35
19,C13G C61A,0.148
20,C7G G68U,0.285
21,C57U G59A,1.07
22,G50A U79C,0.486
23,C36G G81A,0.0545
24,C30U U65A,0.689

row,Variant,self-cleavage
1,G1U G28A,0.292
2,G11A C62A,0.352
3,G35C U79C,0.132
4,C19A U27G,0.158
5,G10A U37G,0.198
6,C49G G53C,0.249
7,G2C C19A,0.106
8,C14U C66A,0.877
9,G76A C85G,0.962
10,U12C C66U,0.655
11,C26U G54U,1.07
12,U27A C75U,0.0519
13,C36G U79A,0.095
14,G31A G82A,0.166
15,U12G A87G,0.723
16,G31U G68C,0.344
17,G31A A70C,0.407
18,G76U G80U,0.407
19,U37G A83U,0.156
20,G40C G82A,0.233
21,G11U G73U,0.111
22,G28A G59C,0.086
23,G68A A71G,0.904
24,G25U G52U,0.234

row,Variant,self-cleavage
1,C41U A78U,0.199
2,U69G C85G,1.01
3,C64A G68U,0.272
4,C21G C57U,0.138
5,C22U U37A,0.166
6,U60G G81C,0.268
7,G2U C7A,0.013
8,A16C C44G,0.317
9,C44A A77U,0.203
10,A43G U47A,0.383
11,C49U U79C,0.47
12,G6A C49U,0.58
13,U23A G28U,0.116
14,A45U C64A,0.882
15,C75U A83C,0.128
16,C15A A51U,0.573
17,C7U C86G,0.617
18,U9C C32A,0
19,G25C A42C,0.128
20,C64U A70C,0.956
21,C41G C64U,0.853
22,G34U U79C,0.201
23,A51C C61A,1.05
24,G34U A70G,0.0997

row,Variant,self-cleavage
1,G40U A71G,0.46
2,U23C G59U,0.975
3,C13G G38U,0.0292
4,G2U G53C,0.0647
5,G28U A43G,0.131
6,A42G G74C,0.095
7,G1U A77C,0.494
8,C84U,0.804
9,A42G A51C,0.831
10,G29A U65C,0.17
11,G10A C32G,0.0966
12,C24G U65A,0.208
13,G40U C85A,0.427
14,G2C C41A,0
15,C66U C75A,0.176
16,G10C C66U,0.862
17,C36A C63U,0.177
18,A42C C66U,0.489
19,U46G G80C,0.185
20,G76U A78U,0.475
21,U23A U65C,1.09
22,G67U U72G,0.389
23,C24G C64G,0.131
24,C41A A51C,0.875

row,Variant,self-cleavage
1,A43G G54A,0.378
2,G55C G80A,0.34
3,C30U C36A,0.193
4,G29C G73U,0.0583
5,C4U A56C,0.522
6,U9G A83U,0.453
7,U23C U65C,1.02
8,C63U G81C,0.151
9,C36G A43C,0.166
10,G17C C85U,0.156
11,G11C C44G,0
12,G82C C86G,0.194
13,G40A C66U,0.892
14,U9A C57A,1.02
15,C26U G50A,1.07
16,C63A C75U,0.0906
17,G17A C85G,0.814
18,U20C G29C,0.231
19,G54A A77G,0.614
20,U69C A87C,1.18
21,C58U C64A,0.867
22,U12G C22U,0.256
23,G11U C48G,0.212
24,G39C G52U,0.253

row,Variant,self-cleavage
1,G6U G10A,0.185
2,A56G U60A,0.914
3,U27G G59C,1.03
4,U27G U65C,0.965
5,C19G G50U,0.108
6,A16U G29C,0.104
7,A42G G82C,0.0396
8,G67C U79G,0.435
9,C32G G81A,0.0297
10,G11U C13A,0.197
11,A8U U37C,0.87
12,G29U G67A,0.12
13,C32U G38A,0.216
14,U12A G59U,0.214
15,U20C U65G,0.145
16,G10A G80U,0.145
17,U12G G35U,0.104
18,A56C A71G,0.98
19,C13A C86A,0.492
20,G11U A42G,0.0386
21,U9A C44A,0.831
22,G11A U60G,0.399
23,C30G G52C,0.133
24,G38A U72G,0.0415

row,Variant,self-cleavage
1,G55C A70U,0.96
2,G10U C24G,0.0886
3,G29C C63U,0
4,C13U G74C,0.0627
5,A8U U72A,0.369
6,G54U U65C,0.969
7,U9C G53U,1.26
8,C64A U79C,0.636
9,G25C A51G,0.237
10,G76A A83G,0.992
11,C15G G31U,0.135
12,G54A U65G,0.466
13,G5A C32G,0.248
14,C32G C62A,0.148
15,C63A G81C,0.188
16,G82A C86A,0.729
17,C14U C86A,1.1
18,G54U A78G,0.534
19,C49G C62A,0.739
20,C30A G54A,0.535
21,C58U C61U,0.954
22,C22G A56U,0.133
23,U79A G80A,0.234
24,G34U U60G,0.166

row,Variant,self-cleavage
1,G34A A77C,0.095
2,U65C G81U,0.415
3,G1A C49U,0
4,A8U U20C,0
5,G29A U47A,0.148
6,C14A C21G,0.141
7,C7A G82A,0.0875
8,A42G A43G,0
9,A8C C44G,0.401
10,C63A G82U,0.467
11,C3G U72C,0.267
12,G38A C61U,0.0573
13,U23G G55A,0.67
14,C44A C62U,0.723
15,C63A C86A,1.05
16,G28U C30A,0.0923
17,G1C C62G,0.0831
18,G6A C48A,0.465
19,C22A U27G,0.151
20,G17C U27A,0.222
21,U47A G55A,0.927
22,A16C G28A,0.0449

# Reference: the RNAGym collection of RNA variant scans (doi:10.7554/elife.80360)
